Assay [1] deals with T1, pxAM-FLS-SSAS-TB-His (SARS-CoV-2, UniProt P0DTC2 15-1213).
For assay [2], the target named is T1, pxAM-FLS-SSAS-TB-His. The source holds these as a separate data set.
In assay [3] the target is T1, pxAM-FLS-SSAS-TB-His. This is another data set of the same source.
For assay [4], the target named is Brazil, Gamma, pxENB9-FLS-P.1 (SARS-CoV-2, UniProt P0DTC2 15-1213).
For assay [5], the target named is India, Delta, pxENB9-FLS-B.1.617.2 (SARS-CoV-2, UniProt P0DTC2 15-1213).
The target of assay [6] is US/CA, Epsilon, pxENB9-FLS-B.1.427 (SARS-CoV-2, UniProt P0DTC2 15-1213).

Where two headings read alike, the source gives them in different places.

In US20240400618A1 (GRIFOLS DIAGNOSTIC SOLUTIONS, published 2024) one finds Kd data, which are given here for one molecule.

B1: pxEBN4-ACE2-AAA-His (receptor)
chain: QSTIEEQAKTFLDKFNHEAEDLFYQSSLASWNYNTNITEENVQNMNNAGDKWSAFLKEQSTLAQMYPLQEIQNLTVKLQLQALQQNGSSVLSEDKSKRLNTILNTMSTIYSTGKVCNPDAPAECLLLEPGLNEIMANSLDYNERLWAWESWRSEVGKALRPLYEEYVVLKNEMARANHYEDYGDYWRGDYEVNGVDGYDYSRGQLIEDVEHTFEEIKPLYEHLHAYVRAKLMNAYPSYISPIGCLPAHLLGDMWGRFWTNLYSLTVPFGQKPNIDVTDAMVDQAWDAQRIFKEAEKFFVSVGLPNMTQGFWENSMLTDPGNVQKAVCHPTAWDLGKGDFRILMCTKVTMDDFLTAHHEMGHIQYDMAYAAQPFLLRNGANEGFHEAVGEIMSLSAATPKHLKSIGLLSPDFQEDNETEINFLLKQALTIVGTLPFTYMLEKWRWMVFKGEIPKDQWMKKWWEMKREIVGVVEPVPHDETYCDPASLFHVSNDYSFIRYYTRTLYQFQFQEALCQAAKHEGPLHKCDISNSTEAGQKLFNMLRLGKSEPWTLALENVVGAKNMNVRPLLNYFEPLFTWLKDQNKNSFVGWSTDWSPYADGGGSHHHHHHHH
A word on the Kd: it is the equilibrium constant for the complex coming apart. A high value points to lower affinity. As for B1, the dissociation constant Kd turned out to be 0.524 nM with pxAM-FLS-SSAS-TB-His [1]; 5.62 nM in the assay with pxAM-FLS-SSAS-TB-His [2]; 0.13 nM with pxAM-FLS-SSAS-TB-His [3]; 0.00159 nM in assay [4]; 2.55 nM in assay [5]; 1.3 nM in assay [6].
